Measurements taken from patent US20170304437A1 (ALLIGATOR BIOSCIENCE, published 2017).
Each block holds one binder with its values, some of them ahead of it.

Legend:
[1] = target: T1, human CTLA4-Fc (Fitzgerald #30R-CD152) (human, UniProt P16410 38-152); test: binding ELISA, CTLA4-Fc coated, sample titrated, anti-human IgG Fc-HRP, chemiluminescence, data normalised to % [both panels]
T1 construct: Bought reagent; also called biotinylated-CTLA4; human CTLA-4 (Fitzgerald); not shown: Fc part of the bought fusion
T1 sequence (P16410 38-152 limits assumed): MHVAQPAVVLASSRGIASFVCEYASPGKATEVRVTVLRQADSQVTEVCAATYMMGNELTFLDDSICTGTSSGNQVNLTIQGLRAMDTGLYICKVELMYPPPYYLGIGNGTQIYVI
Experimental: (§1) The plates were washed (Wash buffer: PBS+0.05% Tween 20 (PBST) Medicago #09-9410-100) and then blocked in PBST+3% BSA (Merck, #1.12018.0100). The plates were washed again and sample or controls (serially diluted 1/3 from […]) were added to the wells. The samples were incubated for 1 h at room temperature and then washed. Detection antibody, goat-anti-human IgG Fγy-HRP (Jackson, #109-035-098) was added and the plates were subsequently developed using SuperSignal Pico Chemiluminescent substrate (Thermo #37069) and detected with an Envision reader (Perkin Elmer).

[2] = target: T2, CD28-Fc (provided by Simon Davis, Oxford University) (human, UniProt P10747 19-152, limits assumed); test: binding ELISA, coated CD28-Fc
T2 construct: Gift reagent; not shown: Fc part
Experimental: as §1

[3] = target: T1, human CTLA4-Fc (Fitzgerald #30R-CD152); test: binding ELISA, CTLA4-Fc coated, sample titrated, anti-human IgG Fc-HRP, chemiluminescence, data normalised to % [upper panel]
Experimental: as §1

[4] = target: T1, human CTLA4-Fc (Fitzgerald #30R-CD152); test: binding ELISA, CTLA4-Fc coated, sample titrated, anti-human IgG Fc-HRP, chemiluminescence, data normalised to % [lower panel]
Experimental: as §1

[5] = target: T3, CD40-Fc (Ancell # 504-820) (human, UniProt P25942 21-193); test: binding ELISA, CD40-Fc coated, sample titrated, anti-human IgG Fc-HRP, chemiluminescence
T3 construct: Bought reagent; also called human CD40; not shown: Fc part of the bought fusion
T3 sequence (P25942 21-193 limits assumed): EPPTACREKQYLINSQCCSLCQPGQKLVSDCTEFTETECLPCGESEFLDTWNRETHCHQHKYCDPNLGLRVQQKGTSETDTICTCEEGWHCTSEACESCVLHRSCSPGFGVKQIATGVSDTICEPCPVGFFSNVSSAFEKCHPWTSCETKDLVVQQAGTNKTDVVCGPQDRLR
Experimental: (§2) In short, 96-well flat bottom plate high binding plates (Greiner #655074) were coated with CD40-Fc (Ancell # 504-820) by incubating overnight at 4° C. The plates were washed (Wash buffer: PBS+0.05% Tween 20 (PBST) Medicago #09-9410-100) and then blocked in PBST+3% BSA (Merck, #1.12018.0100). The plates were washed again and samples or control (serial dilutions 1/2, starting at 0.2 ug/ml) were added to the wells.
(§3) The samples were incubated for 1 h at room temperature and then washed. Detection antibody, goat-anti-human IgG Fcγ-HRP (Jackson, #109-035-098) was added and the plates were subsequently developed using SuperSignal Pico Chemiluminescent substrate (Thermo #37069) and detected with Envision reader (Perkin Elmer). In FIG. 6A the binding of bispecific molecules at different concentrations to CD40 coated onto an ELISA plate is shown. In FIG. 6B, the binding of bispecific molecules at one fixed concentration (100 ng/ml) to CD40 coated onto an ELISA plate is shown. The bispecific molecules bind specifically to CD40.

[6] = target: T3, CD40-Fc (Ancell # 504-820); test: binding ELISA, CD40-Fc coated, one fixed concentration (100 ng/ml), anti-human IgG Fc-HRP
Experimental: as §2, §3

[7] = target: T3, CD40-Fc (Ancell # 504-820); test: binding ELISA, CD40-Fc coated, one fixed concentration, anti-human IgG Fc-HRP
Experimental: as §2, §3

EC50 (read off the curve) [1]: ~0.5 µg/mL
B1: wild type human CD86 soluble extracellular domain (control in Examples 2 and 4) (ligand)
chain: APLKIQAYFNETADLPCQFANSQNQSLSELVVFWQDQENLVLNEVYLGKEKFDSVHSKYMGRTSFDSDSWTLRLHNLQIKDKGLYQCIIHHKKPTGMIRIHQMNSELSVLA
notes: probably the same Fc fusion as the clones; also called wild-type protein CD86; wild type CD86; not shown: the clones it is compared with were gamma2/gamma4 Fc fusions and detection was by anti

binding result [2]: no binding
EC50 (read off the curve) [3]: ~0.1 µg/mL
B2: CD86 mutant clone 1038, gamma2/gamma4 fusion (Fc fusion)
chain: APLKIQAYFNETADLPCQFANSQNLSLSELVVFWQDQENLVLNEVYLGKEKFDSVDSKYMGRTSFDSDSWTLRLHNLQIKDKGIYQCIIHHKKPTGMVKIHEMNSELSVLA
notes: Expressed as gamma2/gamma4 fusion, protein A purified; not shown: gamma2/gamma4 Fc

binding result [2]: no binding
EC50 (read off the curve) [4]: ~0.02 µg/mL
B3: CD86 mutant clone 1046, gamma2/gamma4 fusion (Fc fusion)
chain: APLKIQAYFNETADLPCQFANSQNQSLSELVVFWQDQENLVLNEVYLGKEKFDSVDSKYMGRTSFDSDSWTLRLHNLQIEDKGIYQCIIHHKKPSGMVKIHQMDSELSVLA
notes: as for B2

binding result [2]: no binding
EC50 (read off the curve) [4]: ~0.03 µg/mL
B4: CD86 mutant clone 1044, gamma2/gamma4 fusion (Fc fusion)
chain: APLKIQAYFNETADLPCQFANSQNLTLSELVVFWQDQENLVLNEVYLGKEKFDSVSSKYMGRTSFDSDSWTLRLHNLQIKDKGIYQCIIHHKKPTGMIKIHEMSSELSVLA
notes: as for B2

binding result [2]: no binding
EC50 (read off the curve) [4]: ~0.04 µg/mL
B5: CD86 mutant clone 1043, gamma2/gamma4 fusion (Fc fusion)
chain: APLKIQAYFNETADLPCQFANSQNLSLSELVVFWQDQENLVLNEVYLGKEKFDSVDSKYMGRTSFDSDSWTLRLHNLQIKDKGIYQCIIHHKKPTGMIKIHEMNSELSVLA
notes: as for B2

binding result [2]: no binding
EC50 (read off the curve) [3]: ~0.09 µg/mL
B6: CD86 mutant clone 1041, gamma2/gamma4 fusion (Fc fusion)
chain: APLKIQAYLNETADLPCQFANSQNLSLSELVVFWQDQENLVLNEVYLGKEKFDSVDSKYMGRTSFDSDSWTLRLHNLQIKDKGIYQCIIHHKKPTGLVKIHEMNSELSVLA
notes: as for B2

binding result [2]: no binding
B7: CD86 mutant clone 1047, gamma2/gamma4 fusion (Fc fusion)
chain: APLKIQAYFNETADLPCQFANSQNLSLSELVVFWQDQENLVLNEVYLGKEKFDSVDSKYMGRTSFDSDSWTLRLHNLQIKDKGIYQCIIHHKKPTGLVKIHEMNSELSVLA
notes: as for B2

EC50 (read off the curve) [1]: ~0.8 µg/mL
B8: CD86 H79A mutant (Peach et al) control clone (ligand)
chain: APLKIQAYFNETADLPCQFANSQNQSLSELVVFWQDQENLVLNEVYLGKEKFDSVASKYMGRTSFDSDSWTLRLHNLQIKDKGLYQCIIHHKKPTGMIRIHQMNSELSVLA
notes: also called Prior Art; not shown: probably the same gamma2/gamma4 Fc fusion

binding result [2]: no binding
EC50 (read off the curve) [4]: ~0.05 µg/mL
B9: CD86 mutant clone 1045, gamma2/gamma4 fusion (Fc fusion)
chain: APLKIQAYFNETADLPCQFANSQNLTLSELVVFWQDQENLVLNEVYLGKEKFDSVDSKYMGRTSFDSDSWTLRLHNLQIKDKGLYQCIIHHKKPTGLVKIHEMNSELSVLA
notes: as for B2

binding result [2]: no binding
EC50 (read off the curve) [3]: ~0.04 µg/mL
B10: CD86 mutant clone 1039, gamma2/gamma4 fusion (Fc fusion)
chain: APLKIQAYFNETADLPCQFANSQNLSLSELVVFWQDQENLVLNEVYLGKEKFDSVSSKYMGRTSFDSDSWTLRLHNLQIKDKGIYQCIIHHKKPSGMVKIHQMDSELSVLA
notes: as for B2

binding result [5]: binds
B11: Bispecific polypeptide 956/530 (bispecific antibody, human IgG1, kappa)
light: QSVLTQPPSASGTPGQRVTISCSGSSSNIGSNTVNWYQQLPGTAPKLLIYRNNQRPSGVPDRFSGSKSGTSASLAISGLRSEDEADYYCAAWDDSLSGWRFGGGTKLTVLGGTVAAPSVFIFPPSDEQLKSGTASVVCLLNNFYPREAKVQWKVDNALQSGNSQESVTEQDSKDSTYSLSSTLTLSKADYEKHKVYACEVTHQGLSSPVTKSFNRGECSGGGGSGGGGSLKIQAYFNETADLPCQFANSQNQSLSELIVFWQDQENLVLNEVYLGKERFDAVDSKYMGRTSFDSDSWTLRLHNLQIKDKGIYQCIIHHKKPSGMVKIHQMDSELSVLA
heavy: not shown

EC50 (read off the curve) [5]: ~0.2 µg/mL
B12: Bispecific polypeptide 957/530 (bispecific antibody, human IgG1, kappa)
light: QSVLTQPPSASGTPGQRVTISCSGSSSNIGSNTVNWYQQLPGTAPKLLIYRNNQRPSGVPDRFSGSKSGTSASLAISGLRSEDEADYYCAAWDDSLSGWRFGGGTKLTVLGGTVAAPSVFIFPPSDEQLKSGTASVVCLLNNFYPREAKVQWKVDNALQSGNSQESVTEQDSKDSTYSLSSTLTLSKADYEKHKVYACEVTHQGLSSPVTKSFNRGECSGGGGSGGGGSAPLKIQAYFNETADLPCQFANSQNQSLSELIVFWQDQENLVLNEVYLGKERFDAVDSKYMGRTSFDSDSWTLRLHNLQIKDKGIYQCIIHHKKPSGMVKIHQMDSELSVLA
heavy: not shown

binding result [6]: binds
B13: Bispecific polypeptide 958/531 (bispecific antibody, human IgG1, kappa)
heavy: not shown
light: QSVLTQPPSASGTPGQRVTISCSGSSSNIGSNTVNWYQQLPGTAPKLLIYRNNQRPSGVPDRFSGSKSGTSASLAISGLRSEDEADYYCAAWDDSLSGWRFGGGTKLTVLGGTVAAPSVFIFPPSDEQLKSGTASVVCLLNNFYPREAKVQWKVDNALQSGNSQESVTEQDSKDSTYSLSSTLTLSKADYEKHKVYACEVTHQGLSSPVTKSFNRGEC

B14: isolated polypeptide of amino acid sequence SEQ ID NO: 8 (soluble CTLA-4 binding domain reference 904) (ligand)
chain: LKIQAYFNETADLPCQFANSQNQSLSELIVFWQDQENLVLNEVYLGKERFDAVDSKYMGRTSFDSDSWTLRLHNLQIKDKGIYQCIIHHKKPSGMVKIHQMDSELSVLA
notes: Control in the CD40 ELISA
binding result [7]: no binding (tested: 100 ng/ml (not on the sheet))

binding result [6]: binds
B15: Bispecific polypeptide 959/530 (bispecific antibody, human IgG1, kappa)
light: LKIQAYFNETADLPCQFANSQNQSLSELIVFWQDQENLVLNEVYLGKERFDAVDSKYMGRTSFDSDSWTLRLHNLQIKDKGIYQCIIHHKKPSGMVKIHQMDSELSVLAKRTVAQSVLTQPPSASGTPGQRVTISCSGSSSNIGSNTVNWYQQLPGTAPKLLIYRNNQRPSGVPDRFSGSKSGTSASLAISGLRSEDEADYYCAAWDDSLSGWRFGGGTKLTVLGGTVAAPSVFIFPPSDEQLKSGTASVVCLLNNFYPREAKVQWKVDNALQSGNSQESVTEQDSKDSTYSLSSTLTLSKADYEKHKVYACEVTHQGLSSPVTKSFNRGEC
heavy: not shown

binding result [6]: binds
B16: Bispecific polypeptide 960/530 (bispecific antibody, human IgG1, kappa)
light: LKIQAYFNETADLPCQFANSQNQSLSELIVFWQDQENLVLNEVYLGKERFDAVDSKYMGRTSFDSDSWTLRLHNLQIKDKGIYQCIIHHKKPSGMVKIHQMDSELSVLANFSQPQSVLTQPPSASGTPGQRVTISCSGSSSNIGSNTVNWYQQLPGTAPKLLIYRNNQRPSGVPDRFSGSKSGTSASLAISGLRSEDEADYYCAAWDDSLSGWRFGGGTKLTVLGGTVAAPSVFIFPPSDEQLKSGTASVVCLLNNFYPREAKVQWKVDNALQSGNSQESVTEQDSKDSTYSLSSTLTLSKADYEKHKVYACEVTHQGLSSPVTKSFNRGEC
heavy: not shown
